# *1 amine or outer side, *2 acyl side, *3 side chain or, on linkers, in order; H or OH if unused. Side-chain parts run from the residue outwards. The star is where a group is joined. C18 diacid = O=C(O)CCCCCCCCCCCCCCCCC(=O)*; γGlu = O=C(O)[C@H](CCC(=O)[*:2])N[*:1]; Isovaleryl = CC(C)CC(=O)*; Ahx = NCCCCCC(=O)O
# T1: human NPY2 receptor (human, UniProt P49146 1-381)
# T1 construct: whole, on cells; also called hNPY2-R; hNPY2R
# T1 sequence (looked up): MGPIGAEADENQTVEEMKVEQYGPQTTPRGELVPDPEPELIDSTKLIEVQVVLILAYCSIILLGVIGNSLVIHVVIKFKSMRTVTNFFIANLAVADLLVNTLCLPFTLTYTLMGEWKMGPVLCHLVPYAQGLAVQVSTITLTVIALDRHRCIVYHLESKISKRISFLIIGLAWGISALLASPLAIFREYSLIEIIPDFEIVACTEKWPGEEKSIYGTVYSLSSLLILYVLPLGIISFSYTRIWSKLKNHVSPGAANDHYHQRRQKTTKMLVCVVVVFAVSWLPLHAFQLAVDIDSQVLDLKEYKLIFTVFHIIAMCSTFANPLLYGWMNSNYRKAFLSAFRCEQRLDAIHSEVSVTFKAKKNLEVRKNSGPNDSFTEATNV
# B1: Compound 111 (peptide)
# peptide: Isovaleryl-APAK([Ahx-γGlu-C18 diacid])PEAAAEPEEIQRYYVSLRHYYNWLTRQRY-NH2
# SMILES: CC[C@H](C)[C@H](NC(=O)[C@H](CCC(=O)O)NC(=O)[C@H](CCC(=O)O)NC(=O)[C@@H]1CCCN1C(=O)[C@H](CCC(=O)O)NC(=O)[C@H](C)NC(=O)[C@H](C)NC(=O)[C@H](C)NC(=O)[C@H](CCC(=O)O)NC(=O)[C@@H]1CCCN1C(=O)[C@H](CCCCNC(=O)CCCCCNC(=O)CC[C@H](NC(=O)CCCCCCCCCCCCCCCCC(=O)O)C(=O)O)NC(=O)[C@H](C)NC(=O)[C@@H]1CCCN1C(=O)[C@H](C)NC(=O)CC(C)C)C(=O)N[C@@H](CCC(N)=O)C(=O)N[C@@H](CCCNC(=N)N)C(=O)N[C@@H](Cc1ccc(O)cc1)C(=O)N[C@@H](Cc1ccc(O)cc1)C(=O)N[C@H](C(=O)N[C@@H](CO)C(=O)N[C@@H](CC(C)C)C(=O)N[C@@H](CCCNC(=N)N)C(=O)N[C@@H](Cc1c[nH]cn1)C(=O)N[C@@H](Cc1ccc(O)cc1)C(=O)N[C@@H](Cc1ccc(O)cc1)C(=O)N[C@@H](CC(N)=O)C(=O)N[C@@H](Cc1c[nH]c2ccccc12)C(=O)N[C@@H](CC(C)C)C(=O)N[C@H](C(=O)N[C@@H](CCCNC(=N)N)C(=O)N[C@@H](CCC(N)=O)C(=O)N[C@@H](CCCNC(=N)N)C(=O)N[C@@H](Cc1ccc(O)cc1)C(N)=O)[C@@H](C)O)C(C)C
# B2: Compound 112 (peptide)
# peptide: Isovaleryl-APEK([Ahx-γGlu-C18 diacid])PEEDAEPEEIQRYYVSLRHYYNWLTRQRY-NH2
# SMILES: CC[C@H](C)[C@H](NC(=O)[C@H](CCC(=O)O)NC(=O)[C@H](CCC(=O)O)NC(=O)[C@@H]1CCCN1C(=O)[C@H](CCC(=O)O)NC(=O)[C@H](C)NC(=O)[C@H](CC(=O)O)NC(=O)[C@H](CCC(=O)O)NC(=O)[C@H](CCC(=O)O)NC(=O)[C@@H]1CCCN1C(=O)[C@H](CCCCNC(=O)CCCCCNC(=O)CC[C@H](NC(=O)CCCCCCCCCCCCCCCCC(=O)O)C(=O)O)NC(=O)[C@H](CCC(=O)O)NC(=O)[C@@H]1CCCN1C(=O)[C@H](C)NC(=O)CC(C)C)C(=O)N[C@@H](CCC(N)=O)C(=O)N[C@@H](CCCNC(=N)N)C(=O)N[C@@H](Cc1ccc(O)cc1)C(=O)N[C@@H](Cc1ccc(O)cc1)C(=O)N[C@H](C(=O)N[C@@H](CO)C(=O)N[C@@H](CC(C)C)C(=O)N[C@@H](CCCNC(=N)N)C(=O)N[C@@H](Cc1c[nH]cn1)C(=O)N[C@@H](Cc1ccc(O)cc1)C(=O)N[C@@H](Cc1ccc(O)cc1)C(=O)N[C@@H](CC(N)=O)C(=O)N[C@@H](Cc1c[nH]c2ccccc12)C(=O)N[C@@H](CC(C)C)C(=O)N[C@H](C(=O)N[C@@H](CCCNC(=N)N)C(=O)N[C@@H](CCC(N)=O)C(=O)N[C@@H](CCCNC(=N)N)C(=O)N[C@@H](Cc1ccc(O)cc1)C(N)=O)[C@@H](C)O)C(C)C
# B3: Compound 119 (peptide)
# peptide: Isovaleryl-APEK([Ahx-γGlu-C18 diacid])PEEDATPEESQRYYVSLRHYYNWLTRQRY-NH2
# SMILES: CC(C)CC(=O)N[C@@H](C)C(=O)N1CCC[C@H]1C(=O)N[C@@H](CCC(=O)O)C(=O)N[C@@H](CCCCNC(=O)CCCCCNC(=O)CC[C@H](NC(=O)CCCCCCCCCCCCCCCCC(=O)O)C(=O)O)C(=O)N1CCC[C@H]1C(=O)N[C@@H](CCC(=O)O)C(=O)N[C@@H](CCC(=O)O)C(=O)N[C@@H](CC(=O)O)C(=O)N[C@@H](C)C(=O)N[C@H](C(=O)N1CCC[C@H]1C(=O)N[C@@H](CCC(=O)O)C(=O)N[C@@H](CCC(=O)O)C(=O)N[C@@H](CO)C(=O)N[C@@H](CCC(N)=O)C(=O)N[C@@H](CCCNC(=N)N)C(=O)N[C@@H](Cc1ccc(O)cc1)C(=O)N[C@@H](Cc1ccc(O)cc1)C(=O)N[C@H](C(=O)N[C@@H](CO)C(=O)N[C@@H](CC(C)C)C(=O)N[C@@H](CCCNC(=N)N)C(=O)N[C@@H](Cc1c[nH]cn1)C(=O)N[C@@H](Cc1ccc(O)cc1)C(=O)N[C@@H](Cc1ccc(O)cc1)C(=O)N[C@@H](CC(N)=O)C(=O)N[C@@H](Cc1c[nH]c2ccccc12)C(=O)N[C@@H](CC(C)C)C(=O)N[C@H](C(=O)N[C@@H](CCCNC(=N)N)C(=O)N[C@@H](CCC(N)=O)C(=O)N[C@@H](CCCNC(=N)N)C(=O)N[C@@H](Cc1ccc(O)cc1)C(N)=O)[C@@H](C)O)C(C)C)[C@@H](C)O
# B4: Compound 113 (peptide)
# peptide: Isovaleryl-APEK([Ahx-γGlu-C18 diacid])PEEDATPEEIQRYYVSLRHYQNWLTRQRY-NH2
# SMILES: CC[C@H](C)[C@H](NC(=O)[C@H](CCC(=O)O)NC(=O)[C@H](CCC(=O)O)NC(=O)[C@@H]1CCCN1C(=O)[C@@H](NC(=O)[C@H](C)NC(=O)[C@H](CC(=O)O)NC(=O)[C@H](CCC(=O)O)NC(=O)[C@H](CCC(=O)O)NC(=O)[C@@H]1CCCN1C(=O)[C@H](CCCCNC(=O)CCCCCNC(=O)CC[C@H](NC(=O)CCCCCCCCCCCCCCCCC(=O)O)C(=O)O)NC(=O)[C@H](CCC(=O)O)NC(=O)[C@@H]1CCCN1C(=O)[C@H](C)NC(=O)CC(C)C)[C@@H](C)O)C(=O)N[C@@H](CCC(N)=O)C(=O)N[C@@H](CCCNC(=N)N)C(=O)N[C@@H](Cc1ccc(O)cc1)C(=O)N[C@@H](Cc1ccc(O)cc1)C(=O)N[C@H](C(=O)N[C@@H](CO)C(=O)N[C@@H](CC(C)C)C(=O)N[C@@H](CCCNC(=N)N)C(=O)N[C@@H](Cc1c[nH]cn1)C(=O)N[C@@H](Cc1ccc(O)cc1)C(=O)N[C@@H](CCC(N)=O)C(=O)N[C@@H](CC(N)=O)C(=O)N[C@@H](Cc1c[nH]c2ccccc12)C(=O)N[C@@H](CC(C)C)C(=O)N[C@H](C(=O)N[C@@H](CCCNC(=N)N)C(=O)N[C@@H](CCC(N)=O)C(=O)N[C@@H](CCCNC(=N)N)C(=O)N[C@@H](Cc1ccc(O)cc1)C(N)=O)[C@@H](C)O)C(C)C
# B5: Compound 121 (peptide)
# peptide: Isovaleryl-APEK([Ahx-γGlu-C18 diacid])PEADASPEELQRYYVQLRHYYNWLTRQRY-NH2
# SMILES: CC(C)CC(=O)N[C@@H](C)C(=O)N1CCC[C@H]1C(=O)N[C@@H](CCC(=O)O)C(=O)N[C@@H](CCCCNC(=O)CCCCCNC(=O)CC[C@H](NC(=O)CCCCCCCCCCCCCCCCC(=O)O)C(=O)O)C(=O)N1CCC[C@H]1C(=O)N[C@@H](CCC(=O)O)C(=O)N[C@@H](C)C(=O)N[C@@H](CC(=O)O)C(=O)N[C@@H](C)C(=O)N[C@@H](CO)C(=O)N1CCC[C@H]1C(=O)N[C@@H](CCC(=O)O)C(=O)N[C@@H](CCC(=O)O)C(=O)N[C@@H](CC(C)C)C(=O)N[C@@H](CCC(N)=O)C(=O)N[C@@H](CCCNC(=N)N)C(=O)N[C@@H](Cc1ccc(O)cc1)C(=O)N[C@@H](Cc1ccc(O)cc1)C(=O)N[C@H](C(=O)N[C@@H](CCC(N)=O)C(=O)N[C@@H](CC(C)C)C(=O)N[C@@H](CCCNC(=N)N)C(=O)N[C@@H](Cc1c[nH]cn1)C(=O)N[C@@H](Cc1ccc(O)cc1)C(=O)N[C@@H](Cc1ccc(O)cc1)C(=O)N[C@@H](CC(N)=O)C(=O)N[C@@H](Cc1c[nH]c2ccccc12)C(=O)N[C@@H](CC(C)C)C(=O)N[C@H](C(=O)N[C@@H](CCCNC(=N)N)C(=O)N[C@@H](CCC(N)=O)C(=O)N[C@@H](CCCNC(=N)N)C(=O)N[C@@H](Cc1ccc(O)cc1)C(N)=O)[C@@H](C)O)C(C)C
# B6: Compound 120 (peptide)
# peptide: Isovaleryl-APAK([Ahx-γGlu-C18 diacid])PEEAATPEEIQRYYVALRHYYNWLTRQRY-NH2
# SMILES: CC[C@H](C)[C@H](NC(=O)[C@H](CCC(=O)O)NC(=O)[C@H](CCC(=O)O)NC(=O)[C@@H]1CCCN1C(=O)[C@@H](NC(=O)[C@H](C)NC(=O)[C@H](C)NC(=O)[C@H](CCC(=O)O)NC(=O)[C@H](CCC(=O)O)NC(=O)[C@@H]1CCCN1C(=O)[C@H](CCCCNC(=O)CCCCCNC(=O)CC[C@H](NC(=O)CCCCCCCCCCCCCCCCC(=O)O)C(=O)O)NC(=O)[C@H](C)NC(=O)[C@@H]1CCCN1C(=O)[C@H](C)NC(=O)CC(C)C)[C@@H](C)O)C(=O)N[C@@H](CCC(N)=O)C(=O)N[C@@H](CCCNC(=N)N)C(=O)N[C@@H](Cc1ccc(O)cc1)C(=O)N[C@@H](Cc1ccc(O)cc1)C(=O)N[C@H](C(=O)N[C@@H](C)C(=O)N[C@@H](CC(C)C)C(=O)N[C@@H](CCCNC(=N)N)C(=O)N[C@@H](Cc1c[nH]cn1)C(=O)N[C@@H](Cc1ccc(O)cc1)C(=O)N[C@@H](Cc1ccc(O)cc1)C(=O)N[C@@H](CC(N)=O)C(=O)N[C@@H](Cc1c[nH]c2ccccc12)C(=O)N[C@@H](CC(C)C)C(=O)N[C@H](C(=O)N[C@@H](CCCNC(=N)N)C(=O)N[C@@H](CCC(N)=O)C(=O)N[C@@H](CCCNC(=N)N)C(=O)N[C@@H](Cc1ccc(O)cc1)C(N)=O)[C@@H](C)O)C(C)C
# Biological target: T1, human NPY2 receptor
# Assay: RLB: displacement of 125I-PYY(1-36) from hNPY2R membranes
row,Ki,Binder
1,2.14 nM,B1
2,4.28 nM,B2
3,5.73 nM,B3
4,3.53 nM,B4
5,1.45 nM,B5
6,1.49 nM,B6

# — US20260015399A1 (Boehringer Ingelheim, published 2026)
